Experimental data: patent US20220403005

Tests used:
[1] = tested on: FVIII-R336Q/R562Q (FVIII-QQ)
[2] = tested on: wild-type B-domain deleted FVIII (FVIII-WT)
Sequence of wild-type B-domain deleted FVIII (FVIII-WT) (chain, as listed by the source, stated change not applied): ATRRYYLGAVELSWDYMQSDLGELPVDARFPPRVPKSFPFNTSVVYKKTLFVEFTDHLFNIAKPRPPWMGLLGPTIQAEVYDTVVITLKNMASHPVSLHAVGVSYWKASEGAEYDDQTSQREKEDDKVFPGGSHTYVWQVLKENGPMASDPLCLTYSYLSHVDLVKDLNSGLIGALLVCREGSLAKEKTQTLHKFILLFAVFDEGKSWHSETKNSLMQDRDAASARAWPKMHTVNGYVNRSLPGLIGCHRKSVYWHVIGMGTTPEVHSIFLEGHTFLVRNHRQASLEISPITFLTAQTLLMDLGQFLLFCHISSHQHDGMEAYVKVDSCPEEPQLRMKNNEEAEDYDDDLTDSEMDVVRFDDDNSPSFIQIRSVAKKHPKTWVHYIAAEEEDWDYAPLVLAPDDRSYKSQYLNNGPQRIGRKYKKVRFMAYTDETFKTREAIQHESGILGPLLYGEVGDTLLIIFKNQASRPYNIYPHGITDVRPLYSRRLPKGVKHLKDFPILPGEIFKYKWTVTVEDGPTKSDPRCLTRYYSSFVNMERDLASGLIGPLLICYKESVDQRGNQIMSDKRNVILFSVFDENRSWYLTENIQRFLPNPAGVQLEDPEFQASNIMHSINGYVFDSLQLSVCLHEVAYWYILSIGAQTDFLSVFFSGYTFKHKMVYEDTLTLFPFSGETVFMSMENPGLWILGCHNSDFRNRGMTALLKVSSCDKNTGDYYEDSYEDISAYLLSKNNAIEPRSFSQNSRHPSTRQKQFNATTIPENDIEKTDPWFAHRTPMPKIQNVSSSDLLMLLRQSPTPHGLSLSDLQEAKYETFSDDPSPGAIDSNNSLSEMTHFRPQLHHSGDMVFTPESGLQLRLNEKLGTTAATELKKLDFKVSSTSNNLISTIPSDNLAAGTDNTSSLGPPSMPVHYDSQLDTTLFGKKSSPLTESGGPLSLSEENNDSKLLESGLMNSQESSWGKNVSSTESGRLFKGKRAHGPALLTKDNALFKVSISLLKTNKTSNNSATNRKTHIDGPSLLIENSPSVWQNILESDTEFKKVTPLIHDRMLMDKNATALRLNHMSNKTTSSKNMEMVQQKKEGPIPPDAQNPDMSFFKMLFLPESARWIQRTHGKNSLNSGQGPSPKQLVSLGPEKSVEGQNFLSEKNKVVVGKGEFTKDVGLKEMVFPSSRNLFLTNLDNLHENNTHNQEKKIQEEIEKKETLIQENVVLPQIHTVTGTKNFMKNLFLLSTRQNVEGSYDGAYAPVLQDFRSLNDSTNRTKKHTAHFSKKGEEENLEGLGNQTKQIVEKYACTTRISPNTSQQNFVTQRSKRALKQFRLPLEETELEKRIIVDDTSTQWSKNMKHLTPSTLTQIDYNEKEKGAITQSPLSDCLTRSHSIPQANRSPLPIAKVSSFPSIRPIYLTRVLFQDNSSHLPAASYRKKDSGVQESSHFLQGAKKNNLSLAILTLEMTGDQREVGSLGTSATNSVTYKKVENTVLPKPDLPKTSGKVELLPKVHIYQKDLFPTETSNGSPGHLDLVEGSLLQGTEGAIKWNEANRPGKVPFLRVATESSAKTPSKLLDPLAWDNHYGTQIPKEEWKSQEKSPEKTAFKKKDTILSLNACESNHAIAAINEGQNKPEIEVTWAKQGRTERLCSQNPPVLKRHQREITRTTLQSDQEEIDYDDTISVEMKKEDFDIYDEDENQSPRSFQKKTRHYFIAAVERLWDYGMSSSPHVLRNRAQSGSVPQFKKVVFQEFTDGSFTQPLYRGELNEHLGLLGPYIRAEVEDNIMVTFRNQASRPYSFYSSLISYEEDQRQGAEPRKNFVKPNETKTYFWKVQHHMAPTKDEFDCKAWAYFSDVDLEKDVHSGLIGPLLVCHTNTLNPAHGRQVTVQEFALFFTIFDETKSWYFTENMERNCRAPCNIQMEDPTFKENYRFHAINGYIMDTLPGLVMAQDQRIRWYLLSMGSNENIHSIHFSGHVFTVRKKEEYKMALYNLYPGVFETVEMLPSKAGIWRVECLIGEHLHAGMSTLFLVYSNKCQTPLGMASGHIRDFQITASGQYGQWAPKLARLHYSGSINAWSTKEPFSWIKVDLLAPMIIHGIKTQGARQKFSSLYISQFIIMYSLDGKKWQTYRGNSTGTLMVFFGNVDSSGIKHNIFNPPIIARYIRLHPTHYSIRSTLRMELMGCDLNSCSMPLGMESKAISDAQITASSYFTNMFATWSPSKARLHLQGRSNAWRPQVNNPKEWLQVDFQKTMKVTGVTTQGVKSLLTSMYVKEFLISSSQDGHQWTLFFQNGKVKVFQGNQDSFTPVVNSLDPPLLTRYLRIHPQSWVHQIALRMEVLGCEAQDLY

Sequence of FVIII-R336Q/R562Q (FVIII-QQ) (chain, as listed by the source R336Q R562Q): as the sequence (chain, as listed by the source, stated change not applied) above, with R336Q, R562Q counted along it
Sequence of FVIII-R372Q (chain, as listed by the source R372Q): as the sequence (chain, as listed by the source, stated change not applied) above, with R372Q counted along it

Substance | western blot of reaction products after 30-minute incubation with APC (FVIII-R372Q) | residual FVIII activity (intrinsic Xase assay) after 1-hour APC incubation [1] | residual FVIII activity (intrinsic Xase assay) after incubation with 6 nM APC and 100 nM protein S [1] | loss of FVIII activity (intrinsic Xase assay) after 1-hour APC incubation [2] | residual FVIII activity (intrinsic Xase assay) after incubation with 6 nM APC and 100 nM protein S [2] | SDS-PAGE of cleavage products after incubation with thrombin [1] | SDS-PAGE of cleavage products after incubation with thrombin [2]
activated protein C (APC) | incubating a FVIII-R372Q mutant with APC, which did not produce the A2 fragment | the protein maintained >90% activity following a 1-hour APC incubation | combined PS and APC incubation also accelerated FVIII-QQ loss of function, albeit to a lesser extent than FVIII-WT | FVIII-WT lost approximately 75% activity after a 1-hour APC incubation | FVIII-WT lost nearly all function within 15 minutes of combined APC and PS incubation |  | 
thrombin |  |  |  |  |  | Thrombin cleaved both proteins to yield fragments representing cleavage at R1689 (A3-C1-C2; Mr=70,000) and R740/R372 (A1, Mr=50,000 and A2, Mr=43,000), corresponding to FVIIIa | Thrombin cleaved both proteins to yield fragments representing cleavage at R1689 (A3-C1-C2; Mr=70,000) and R740/R372 (A1, Mr=50,000 and A2, Mr=43,000), corresponding to FVIIIa
